Results reported in patent publication US20240016931A1 (JIANGSU HENGRUI PHARMACEUTICALS, published 2024).
Where a chain is given by its changes, count along the chain named. Names may count otherwise.

T1: His-tagged cynomolgus monkey TSLP antigen (cynoTSLP-His) (cynomolgus monkey)
T1 construct: whole entry named
T1 chain: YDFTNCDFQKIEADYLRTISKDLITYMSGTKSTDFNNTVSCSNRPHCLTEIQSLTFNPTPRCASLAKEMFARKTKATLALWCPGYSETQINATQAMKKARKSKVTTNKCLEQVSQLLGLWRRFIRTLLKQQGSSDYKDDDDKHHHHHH

B1: hu3-11 (antibody, human IgG1, kappa, V domains shown)
VH: EVQLVQSGAEVKKPGASVKVSCKASGYTFTDDYMNWVRQAPGQRLEWMGIISPYNGGTSYNQKFKGRVTLTVDKSASTAYMELSSLRSEDTAVYYCAREDYDYDGYAMDYWGQGTTVTVSS
VL: EIVLTQSPATLSLSPGERATLSCRASSSVSYMHWYQQKPGQAPRPWIYATSNLASGVPARFSGSGSGTSYTLTISRLEPEDFAVYYCQQWSSDRTFGGGTKVEIKR
notes: IgG1-YTE, kappa; also called hu3VH2-H110Y + hu3VL4-N93D
B2: hu3-13 (antibody, human IgG1, kappa, V domains shown)
VH: B1 VH
VL: B1 VL with W90S, S91D, D93G, T95E
notes: IgG1-YTE, kappa; also called hu3VH2-H110Y + hu3VL6
B3: hu179-33 (antibody, human IgG1, kappa, V domains shown)
VH: EVQLVQSGAEVKKPGSSVKVSCKASGYTFSNYLIEWVRQAPGQGLEWIGVIDPGVGDTNYNENFKGRATLTADKSTSTAYIELSSLRSEDTAVYYCAREDNTGTAFDYWGQGTTVTVSS
VL: SIVMTQTPLSLSVTPGQPASISCKASQSVSSDVTWYLQKPGQSPQLLIYYVSEHYTGVPDRFSGSGYGTDFTLKISRVEAEDVGVYYCQQHHRFPLTFGQGTKLEIKR
notes: IgG1-YTE, kappa; also called hu179VH3-N55V + hu179VL8-N53E
B4: hu119-30 (antibody, human IgG1, kappa, V domains shown)
VH: EAQLVQSGAEVKKPGSSVKVSCKASGFTFSTYNMHWVRQAPGQGLEWIGAIYPGNGETSYNQKFKDRATLTVDKSTRTAYMELSSLRSEDTAVYYCAREDDYGEGYFDVWGQGTTVTVSS
VL: DIVLTQSPATLSLSPGERATLSCRASESVDSSGLSFMHWYQQKPGQPPRLLLYRASNLGSGIPARFSGSGSGTDFTLTISSLEPEDFAVYYCQQINTDPLTFGQGTKLEIKR
notes: IgG1-YTE, kappa; also called hu119VH8 + hu119VL6-N31S
B5: hu199-36 (antibody, human IgG1, kappa, V domains shown)
VH: EVQLVQSGAEVKKPGASVKVSCKASGYTFTTYWMHWVKQAPGQGLEWMGMIDPSDSETTLIQKFKDKVTLTVDKSTSTAYMELSSLRSEDTAVYYCARTLDGYYDYWGQGTTVTVSS
VL: DIQMTQSPSSLSASVGDRVTITCRASENIYSYLAWYQQKPGKSPQLLVYFAKTLAEGVPSRFSGSVSGTQFTLTISSLQPEDFATYYCQHHYGTPWTFGGGTKVEIKR
notes: IgG1-YTE, kappa
B6: AMG157 (tezepelumab, anti-TSLP antibody) (antibody, human IgG2, lambda, V domains shown)
VH: QMQLVESGGGVVQPGRSLRLSCAASGFTFRTYGMHWVRQAPGKGLEWVAVIWYDGSNKHYADSVKGRFTITRDNSKNTLNLQMNSLRAEDTAVYYCARAPQWELVHEAFDIWGQGTMVTVSS
VL: SYVLTQPPSVSVAPGQTARITCGGNNLGSKSVHWYQQKPGQAPVLVVYDDSDRPSWIPERFSGSNSGNTATLTISRGEAGDEADYYCQVWDSSSDHVVFGGGTKLTVLG
notes: positive control
B7: Ch199 (antibody, human IgG1, kappa, V domains shown)
VH: QVQLQQSGPQLVRPGASVKISCKASGYSFTTYWMHWVKQRPGQGLEWIGMIDPSDSETTLIQKFKDKATLTVDKSSSTAYMQLSSPTSEDSAVYYCARTLDGYYDYWGQGTTLTVSS
VL: B5 VL with S9A, D17E, R18T, P40Q, T72S, T74K, S76N, A84G, T85S, V104L
notes: murine variable regions on human IgG1-YTE / kappa; also called Chi 99; chimeric antibody corresponding to mab199
B8: hu199-29 (antibody, human IgG1, kappa, V domains shown)
VH: B5 VH with L70M
VL: B5 VL with S43A, Q45K, Q70D
notes: IgG1-YTE, kappa
B9: hu199-30 (antibody, human IgG1, kappa, V domains shown)
VH: B5 VH with L70M
VL: B5 VL
notes: IgG1-YTE, kappa
B10: hu199-31 (antibody, human IgG1, kappa, V domains shown)
VH: B5 VH
VL: B5 VL with S43A, Q45K, V48I, V66G, Q70D
notes: IgG1-YTE, kappa
B11: hu199-32 (antibody, human IgG1, kappa, V domains shown)
VH: B5 VH
VL: B5 VL with S43A, Q45K, V66G, Q70D
notes: IgG1-YTE, kappa
B12: hu199-33 (antibody, human IgG1, kappa, V domains shown)
VH: B5 VH
VL: B5 VL with V66G
notes: IgG1-YTE, kappa
B13: hu199-34 (antibody, human IgG1, kappa, V domains shown)
VH: B5 VH
VL: B5 VL with S43A, Q45K, V48I, Q70D
notes: IgG1-YTE, kappa
B14: hu199-35 (antibody, human IgG1, kappa, V domains shown)
VH: B5 VH
VL: B5 VL with S43A, Q45K, Q70D
notes: IgG1-YTE, kappa

Target: T2, His-tagged human TSLP antigen (huTSLP-his) (human)
T2 construct: Secreted from HEK293E and purified on nickel; whole entry named; also called Human TSLP-his
Assay: ELISA on human TSLP

Binder	binding result
B1	binds

Target: T3, native TSLP (human, UniProt Q969D9 29-159)
Assay: cell-based or functional assay

Binder	IC50 (nM), inhibition of native TSLP-induced proliferation of BaF3-TLSPR/IL-7R cells
B2	0.289 nM
B3	0.0228 nM
B4	1.53 nM

Target: T2, His-tagged human TSLP antigen …
Assay: Biacore T200, antibody captured on Protein A chip, antigen in flow, 1:1 Langmuir

Binder	Kd
B2	1 pM
B5	10.5 pM
B3	0.903 pM
B4	5 pM
B6	8.12 pM

Target: T1, His-tagged cynomolgus monkey TSLP …
Assay: as above

Binder	Kd
B2	340 pM
B5	17.2 pM
B3	30.4 pM
B4	1950 pM
B6	9.22 pM

Target: T4, Fc-tagged human TSLP antigen (huTSLP-Fc) (human, biotin-labeled in the blocking assays)
T4 construct: whole entry named; also called recombinant human TSLP-Fc
Assay: competition ELISA: biotin-huTSLP-Fc binding to coated human-TSLPR-Fc-ECD

Binder	IC50
B2	498 pM
B5	569 pM
B3	504 pM
B4	519 pM

Target: T2, His-tagged human TSLP antigen …
Assay: Biacore (SPR)

Binder	Kd
B3	0.903 pM
B6	8.12 pM

Target: T2, His-tagged human TSLP antigen …
Assay: ELISA, coated huTSLP-his;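 further: binding of antibodies to plate-bound TSLP read as absorbance at 450 nm after TMB colour development, EC50 derived from binding curves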

Binder	EC50
B2	148 pM
B6	722 pM
B7	516 pM

Target: T3, native TSLP
Assay: cell-based or functional assay
Remark: another data set of the same source

Binder	activity in inhibiting native TSLP-stimulated proliferation of BaF3, relative to AMG157
B3	100 times

Target: T4, Fc-tagged human TSLP antigen (huTSLP-Fc)
Assay: competition ELISA: blocks TSLP binding to TSLP receptor

Binder	IC50
B8	554 pM
B9	349 pM
B10	304 pM
B11	287 pM
B12	206 pM
B13	711 pM
B14	485 pM
B5	727 pM
B7	427 pM

Target: T4, Fc-tagged human TSLP antigen (huTSLP-Fc)
Assay: competition FACS: biotin-TSLP-Fc binding to CHOK1-TSLPR/IL-7R cells

Binder	IC50
B2	132 pM
B5	227 pM
B3	187 pM
B4	137 pM
B6	207 pM

Target: T4, Fc-tagged human TSLP antigen (huTSLP-Fc)
Assay: competition ELISA: plate coated with human-TSLPR-Fc-ECD, biotin-labeled huTSLP-Fc premixed with the antibody dilution series, streptavidin-peroxidase detection, OD450; blocked ligand-receptor pair is TSLP and TSLPR

Binder	IC50 (read off the curve)
B6	~500 pM

Target: T4, Fc-tagged human TSLP antigen (huTSLP-Fc)
Assay: cell-based or functional assay

Binder	IC50 (nM), inhibition of TSLP-induced proliferation of BaF3 cells overexpressing TSLPR/IL-7R
B2	0.444 nM
B5	0.477 nM
B3	0.409 nM
B4	0.43 nM
B6	0.573 nM
